Article PMC8639819

Key:
[1] = Western blot, stable 2TS22C cells; conditions: glycan lost; control: WT FLAG-Sox2
[2] = immunofluorescence confocal microscopy; conditions: glycan lost; control: E14 cells
Western blot = conditions: glycan lost; control: E14 cells
[3] = 3D z-stack immunofluorescence, 2TS22C cells; conditions: glycan lost; control: WT FLAG-Sox2

Sequence of Sox2: E14-Sox2TA/WT (chain, as listed by the source): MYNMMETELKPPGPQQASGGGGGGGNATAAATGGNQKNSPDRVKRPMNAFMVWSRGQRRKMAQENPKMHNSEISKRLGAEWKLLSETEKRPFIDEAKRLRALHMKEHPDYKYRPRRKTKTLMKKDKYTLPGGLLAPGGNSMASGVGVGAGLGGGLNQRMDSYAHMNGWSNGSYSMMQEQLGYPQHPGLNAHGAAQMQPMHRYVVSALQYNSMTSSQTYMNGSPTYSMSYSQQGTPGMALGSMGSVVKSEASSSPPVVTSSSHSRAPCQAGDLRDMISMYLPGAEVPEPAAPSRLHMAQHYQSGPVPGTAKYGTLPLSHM
Sequence of Sox2: T258A (chain, as listed by the source T258A): as the sequence (chain, as listed by the source) above
Sequence of Sox2: S248A/T258A (chain, as listed by the source S248A T258A): as the sequence (chain, as listed by the source) above
Sequence of Sox2: S248A (chain, as listed by the source S248A): as the sequence (chain, as listed by the source) above

Substance | expression_or_secretion [1] | localisation_or_trafficking [2] | expression_or_secretion (Western blot) | localisation_or_trafficking [3]
Sox2: S248A/T258A | no change | – | – | –
Sox2: E14-Sox2TA/WT | – | no change | no change | –
Sox2: T258A | no change | – | – | no change
Sox2: S248A | no change | – | – | –
